Assay results published in patent US8834920B2, “Liposome composition for targeting egfr receptor” (Alza Corporation, priority 2006, dated 2014).

Columns and labels:
Control-MMB = Control-MMB (Homo sapiens, UniProt P01857); test: Phage ELISA on Control-MMB; type: binding
Protocol: (§1) The protein solution was removed and wells were rinsed twice with Tris-Buffered Saline containing 0.05% Tween-20 (TBS-T) using a plate washer (Embla). The wells were blocked with Starting Block in TBS for 1 hr at room temperature and rinsed twice with TBS-T. An equal volume of phage supernatant and Starting Block in TBS were incubated in the wells for 1 hr at room temperature, and the wells were rinsed five times with TBS-T. Anti-M13/horseradish peroxidase conjugate (Amersham), diluted 1:5000 in Starting Block in TBS, was added into the wells and incubated for 1 hour at room temperature, and then the wells were rinsed five times with TBS-T. Finally, chemiluminescent peroxidase substrate (Roche) was added to the wells, and chemiluminescence was measured on a Tecan plate reader.
The plates were held overnight at room temperature, washed twice with TBST (0.5M Tris Base, 9% NaCl, 0.05% tween, pH 7.6), and loaded with 200 μL per well of Starting Block (Pierce). […] The plates were held at room temperature for 1.5 hours for blocking. Plates were then washed twice with TBST and phage were added. […] After a one-hour incubation the plates were washed five times with TBST, 100 μL of POD (BM Chemiluminescence ELISA substrate; Roche Applied Science) was added, and chemiluminescene recorded.

sEGFR-His6 = molecular target: T1, sEGFR-His6 (Homo sapiens, UniProt P00533); test: Phage ELISA on coated sEGFR-His6; type: binding; settings: P190 phage, construct sEGFR-His6
T1 construct: made in house; host or cells: HEK293E (transient, secreted)
Protocol: (§2) The plates were held overnight at room temperature, washed twice with TBST (0.5M Tris Base, 9% NaCl, 0.05% tween, pH 7.6), and loaded with 200 μL per well of Starting Block (Pierce). […] The plates were held at room temperature for 1.5 hours for blocking. Plates were then washed twice with TBST and phage were added. The phage solutions were crude phage supernatant from overnight cultures diluted four-fold with Starting Block. After a one-hour incubation, the plates were washed thrice with TBST and 100 μL of a 1:5000 dilution of phage binding antibody conjugate (α-M13-HRP) was added to the wells. EGF was added if applicable. After a one-hour incubation the plates were washed five times with TBST, 100 μL of POD (BM Chemiluminescence ELISA substrate; Roche Applied Science) was added, and chemiluminescene recorded.

A431 cells [1] = test: Flow cytometry (FACS) of phage binding to A431 cells; type: cell-based, human
Protocol: (§3) To evaluate whether the selected peptides from phage display can bind to tumor cells that overexpress EGFR, A431 cells (epidermoid cancer) or an EGFR negative tumor cells, MCF-7 (breast carcinoma) were tested in a flow cytometry assay using fluorescence detection (FACS). For P145, PP146 and their control phage, 2.5×10^5 A431 cells were resuspended in 25 μl of flow staining buffer (dPBS with 1% BSA, 0.09% sodium azide) and incubated with 25 μl of phage clones for 1 hour at 4° C.
(§4) A431 cells (epidermoid cancer) which overexpress EGFR and EGFR-negative tumor cells, MCF-7 (breast carcinoma) were tested in a flow cytometry assay. Tumor cells (A431 and MCF-7) were harvested with 0.25% tyrpsin-EDTA and washed twice with FACS staining buffer (dPBS with 1% BSA, 0.09% sodium azide). […] After binding at 4° C., cells were washed twice with FACS staining buffer to remove unbound phage and then incubated with 0.5 μg of mouse anti-M13 monoclonal antibody conjugated to FITC (Fitzgerald Industries International, Inc. Concord, Mass.) for 1 hour at 4° C. Mouse anti-M13-FITC incubated with cells without phage was used as background binding. Cells were washed twice with FACS staining buffer to remove unbound detection antibody.

EGF + sEGFR-MMB Complex = molecular target: T2, EGF + sEGFR-MMB Complex (Homo sapiens, UniProt P00533); test: Phage ELISA on complex of EGF and sEGFR-MMB; type: binding
T2 construct: made in house
Protocol: as §2

MCF-7 = test: Flow cytometry (FACS) of phage binding to MCF-7 cells; type: cell-based, human; settings: EGFR overexpressing vs EGFR negative cells
Protocol: as §3, §4

sEGFR-MMB [2] = molecular target: T3, sEGFR-MMB (Homo sapiens, UniProt P00533); test: Phage ELISA on coated sEGFR-MMB; type: binding; settings: P190 phage, construct SEGFR-MMB
T3 construct: made in house; host or cells: HEK 293E
Protocol: as §1
Phage were amplified in XL-1 Blue host cells and purified by precipitation with 6% polyethylene glycol-8000/0.5 M sodium chloride. The precipitated phage were resuspended in phosphate-buffered saline in a volume that was 1/100th the original culture volume. For competitive ELISA experiments, plates were prepared by coating wells with sEGFR-MMB or the Control-MMB followed by blocking as described above. […] The binding reaction was incubated for 1 hr at room temperature, and then bound phage were detected with anti-M13/HRP as above. […] Bound phage were washed and detected with anti-M13/HRP as described above. […]

sEGFR-MMB [3] = molecular target: T3, sEGFR-MMB; test: P190-MMB constructs, solid phase binding (BIAcore, ELISA) to immobilized sEGFR-MMB
Source text: In contrast, 190-MMB as the 4316 construct, binds EGFR and the presence of excess EGF promotes its binding.

A431 cells [4] = test: FACS of P190-MMB constructs or cetuximab on A431 cells; type: cell-based, human
EGFR = test: FACE (Fast Activated Cell-based ELISA) of EGFR phosphorylation

What does the source list for DPCTWEVWGRECLQ [Peptide P190]?
binding to Control-MMB (Control-MMB): fails to bind; Relative Signal (sEGFR-His6): 6; binding to A431 cells in the presence of EGF (A431 cells [1]): increased; binding to A431 cells in the presence of EGF and cetuximab (A431 cells [1]): decreases; binding to A431 tumor cells (A431 cells [1]; anti-phage-FITC, 4° C.): bind; Relative Signal (EGF + sEGFR-MMB Complex; P190 phage, construct SEGFR-MMB + EGF): 29408 ± 259; binding to dimeric EGFR in the presence of EGF or TGF-a (EGF + sEGFR-MMB Complex; phage ELISA): increased; binding to A431 compared to MCF-7 (MCF-7): bound more effectively to A431 cells; Relative Signal (sEGFR-MMB [2]): 3937 ± 335

“KTCVSTTFDLWFVCFA (Random peptide) [Peptide P176]” was tested. Which “binding to A431 relative to positive control phage displaying EGF” value (A431 cells [1]) did it give?
Its value is “comparable”.

Which results are given for “SGCLDALWQCVY (Random peptide) [Peptide P174]”?
binding to A431 relative to positive control phage displaying EGF (A431 cells [1]): comparable; binding to A431 compared to MCF-7 (MCF-7): greater to A431 than to MCF-7

How did the “binding to A431 relative to positive control phage displaying EGF” value (A431 cells [1]) turn out when “TLCRSFFHPLCYA (Random peptide) [Peptide P146]” was run?
The value was “weaker”.

Which results are given for VLCHRYYHPICYT [Peptide P145]?
binding to A431 relative to positive control phage displaying EGF (A431 cells [1]): weaker; binding to A431 compared to MCF-7 (MCF-7): greater binding to A431 than MCF-7 cells

B1: 4316: P190-MMB construct with the longest linker, Flex GGGGS, n 4 (protein)
chain: GGDPCTWEVWGRECLQGGGGSGGGGSGGGGSGGGGSCPPCPAPEAAGGPSVFLFPPKPKDTLMISRTPEVTCVVVDVSQEDPEVQFNWYVDGVEVHNAKTKPREEQFNSTYRVVSVLTVLHQDWLNGKEYKCKVSNKGLPSSIEKTISKAKGQPREPQVYTLPPSQEEMTKNQVSLTCLVKGFYPSDIAVEWESNGQPENNYKTTPPVLDSDGSFFLYSRLTVDKSRWQEGNVFSCSVMHEALHNHYTQKSLSLSLGK
B1 was tested. Which on-rate (sEGFR-MMB [3]) did it give?
The on-rate was “much more pronounced on-rate than the other constructs”.

And the “binding rank among linker variants” value (sEGFR-MMB [3]; ELISA and FACS)?
Its value is “best binder”.

What about the “effect of EGF on binding to A431” value (A431 cells [4]; excess rhEGF) of the same molecule?
Its value is “enhanced binding”.

What about the “interference with EGF activation of EGFR” value (EGFR) of the same molecule?
The value was “nor interfere with EGF activation of EGFR”.

And the “EGFR phosphorylation (receptor activation)” value (EGFR; absence of EGF)?
The value was “did not induce EGFR phosphorylation”.

B2: 4315: P190-MMB construct, Flex GGGGS, n 2 (protein)
chain: GGDPCTWEVWGRECLQGGGGSGGGGSCPPCPAPEAAGGPSVFLFPPKPKDTLMISRTPEVTCVVVDVSQEDPEVQFNWYVDGVEVHNAKTKPREEQFNSTYRVVSVLTVLHQDWLNGKEYKCKVSNKGLPSSIEKTISKAKGQPREPQVYTLPPSQEEMTKNQVSLTCLVKGFYPSDIAVEWESNGQPENNYKTTPPVLDSDGSFFLYSRLTVDKSRWQEGNVFSCSVMHEALHNHYTQKSLSLSLGK
Which “binding to A431” value (A431 cells [4]) does the source give for B2 here?
The value was “little binding”.
